In PMC4871238:

Target: native Dictyostelium discoideum pre-60S ribosomal subunit (Dictyostelium discoideum) (UniProt P34113)
Experiment: cryo-EM structure

native Dictyostelium discoideum pre-60S ribosomal subunit (Dictyostelium discoideum), sequence (P34113 whole entry, looked up, tested part not stated): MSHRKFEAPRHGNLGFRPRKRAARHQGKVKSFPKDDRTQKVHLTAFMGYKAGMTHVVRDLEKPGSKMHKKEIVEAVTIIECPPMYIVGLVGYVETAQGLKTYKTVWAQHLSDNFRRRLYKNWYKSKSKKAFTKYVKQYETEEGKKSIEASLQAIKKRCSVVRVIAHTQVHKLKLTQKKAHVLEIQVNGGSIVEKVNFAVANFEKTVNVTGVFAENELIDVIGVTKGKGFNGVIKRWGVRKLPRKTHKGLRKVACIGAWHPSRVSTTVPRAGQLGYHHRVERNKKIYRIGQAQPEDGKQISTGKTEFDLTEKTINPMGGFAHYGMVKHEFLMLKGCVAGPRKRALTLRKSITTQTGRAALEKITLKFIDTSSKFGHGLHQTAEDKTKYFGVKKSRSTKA
Dictyostelium discoideum eIF6 (eukaryotic initiation factor 6), endogenous, sequence (Q551M2 whole entry): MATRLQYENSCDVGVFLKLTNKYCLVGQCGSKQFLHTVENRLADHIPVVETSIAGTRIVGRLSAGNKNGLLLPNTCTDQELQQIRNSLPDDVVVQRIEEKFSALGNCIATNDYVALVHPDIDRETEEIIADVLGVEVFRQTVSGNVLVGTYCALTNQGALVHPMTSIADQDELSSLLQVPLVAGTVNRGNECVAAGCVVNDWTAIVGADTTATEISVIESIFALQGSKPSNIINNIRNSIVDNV

## Dictyostelium discoideum eIF6 (eukaryotic initiation factor 6), endogenous (from UniProt Q551M2 1-244) (natural protein)
  percent of native pre-60S subunits carrying eIF6: 85%
